{"source": "paper PMC6718452", "target": "FITC-labeled amyloid-β (Aβ), aggregated into amyloid-derived diffusible ligands (ADDLs)", "test": "SEC; FITC-labeled Aβ aggregated by the Freir protocol (ADDLs); solvent PBS"}
{"substance": "FITC-labeled amyloid-β (Aβ), aggregated into amyloid-derived diffusible ligands (ADDLs) (peptide)", "values": [{"measurement": "stoichiometry N", "value": 2}]}
